{"source": "paper PMC4920411", "about": "“Binary Toxin Subunits of Lysinibacillus sphaericus Are Monomeric and Form Heterodimers after In Vitro Activation” (PLoS ONE, 2016)", "binders": {"B1": {"name": "activated BinA (act-A), trypsin-cleaved (domain or fragment)", "chain": "IDSFIPTEGKYIRVMDFYNSEYPFCIHAPSAPNGDIMTEICSRENNQYFIFFPTDDGRVIIANRHNGSVFTGEATSVVSDIYTGSPLQFFREVKRTMATYYLAIQNPESATDVRALEPHSHELPSRLYYTNNIENNSNILISNKEQIYLTLPSLPENEQYPKTPVLSGIDDIGPNQSEKSIIGSTLIPCIMVSDFISLGERMKTTPYYYVKHTQYWQSMWSALFPPGSKETKTEKSGITDTSQISMTDGINVSIGADFGLRFGNKTFGIKGGFTYDTKTQITNTSQLLIETTYTREYTNTENFPVRYTGYVLASEFTLHRSDGTQVNTIPWVALNDNYTTIARYPHFASEPLLGNTKIITDDQN", "modifications": "Trypsin-activated. Cleavage sites not given; UniProt mature chain limits used (MALDI about 40.8 kDa). Strain not given; P06575 chosen over the strain variant P05516. / Trypsin-activated. Cleavage"}}, "settings_in_all_cases": "both partners purified", "key": {"[1]": {"biological_target": "T1, activated BinB (act-B), trypsin-cleaved (Lysinibacillus sphaericus)", "T1 chain": "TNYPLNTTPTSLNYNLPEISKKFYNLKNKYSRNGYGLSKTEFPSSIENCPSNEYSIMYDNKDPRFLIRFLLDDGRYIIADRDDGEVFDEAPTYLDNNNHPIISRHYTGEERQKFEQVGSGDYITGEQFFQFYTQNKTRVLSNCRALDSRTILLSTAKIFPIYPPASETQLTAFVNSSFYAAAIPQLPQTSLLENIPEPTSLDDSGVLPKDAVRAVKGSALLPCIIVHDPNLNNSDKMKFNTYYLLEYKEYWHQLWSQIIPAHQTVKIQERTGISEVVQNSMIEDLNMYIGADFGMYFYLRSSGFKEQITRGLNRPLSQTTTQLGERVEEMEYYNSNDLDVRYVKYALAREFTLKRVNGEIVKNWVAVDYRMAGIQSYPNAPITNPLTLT", "assay": "AUC; sedimentation equilibrium, 20°C, 3–10 μM in monomer, 10 to 22.5 krpm, same buffer with 35 mM C8E5 density matched with 16% D2O; global fit to an A+B heteroassociation model (SEDPHAT)"}, "[2]": {"biological_target": "T1, activated BinB (act-B), trypsin-cleaved", "assay": "AUC; sedimentation equilibrium, 20°C, 3–10 μM in monomer, 10 to 22.5 krpm, 50 mM Tris-HCl pH 9.0, 50 mM NaCl, 1 mM DTT, without detergent; global fit to an A+B heteroassociation model (SEDPHAT)"}, "[3]": {"biological_target": "T1, activated BinB (act-B), trypsin-cleaved", "assay": "SEC; Superdex 200 HR 10/30, 50 mM Tris-HCl pH 9.0, 50 mM NaCl, 1 mM DTT; subunits alone or mixed 1:1, incubated 15 min at room temperature; typically 60 μM before and 18 μM after chromatography (total monomer); eluted band checked by SDS-PAGE and MALDI-TOF"}}, "data": [{"binder": "B1", "values": [{"measurement": "Ka", "setting": "[1]", "result": "1.92e+06", "unit": "M⁻¹"}, {"measurement": "Ka", "setting": "[2]", "result": "1.19e+06", "unit": "M⁻¹"}, {"measurement": "stoichiometry N", "setting": "[3]", "result": 1}]}]}
